US5217867

Experiments:
[1] = test system: hGR G465 465 to Gly (Homo sapiens); assay: pulldown; conditions: relative to hGR-SB
[2] = test system: hGR G463 463 to Gly (Homo sapiens); assay: pulldown; conditions: relative to hGR-SB
[3] = test system: hGR G437 437 to Gly (Homo sapiens); assay: pulldown; conditions: relative to hGR-SB
[4] = test system: hGR G433 433 to Gly (Homo sapiens); assay: pulldown; conditions: relative to hGR-SB
[5] = test system: hGR G444 444 to Gly (Homo sapiens); assay: pulldown; conditions: relative to hGR-SB
[6] = test system: hGR-SB (human glucocorticoid receptor, wild-type equivalent) (Homo sapiens); assay: pulldown; conditions: immunoprecipitation DNA binding, reference
[7] = test system: hGR G476 476 to Gly (Homo sapiens); assay: pulldown; conditions: relative to hGR-SB
[8] = test system: hGR delta450-487 deletion between residues 450 and 487 (printed positions are the non-deleted junction residues) (Homo sapiens); assay: pulldown; conditions: relative to hGR-SB
[9] = test system: hGR G479 479 to Gly (Homo sapiens); assay: pulldown; conditions: relative to hGR-SB
[10] = test system: hGR G432 432 to Gly (Homo sapiens); assay: pulldown; conditions: relative to hGR-SB
[11] = test system: hGR G455 455 to Gly (Homo sapiens); assay: pulldown; conditions: relative to hGR-SB; may be unstable in vitro
[12] = test system: hGR G431 C431G (Homo sapiens); assay: pulldown; conditions: relative to hGR-SB
[13] = test system: hGR G450 450 to Gly (Homo sapiens); assay: pulldown; conditions: relative to hGR-SB
[14] = test system: hGR G473 473 to Gly (Homo sapiens); assay: pulldown; conditions: relative to hGR-SB
[15] = test system: hGR G460 460 to Gly (Homo sapiens); assay: pulldown; conditions: relative to hGR-SB
[16] = test system: hGR G423 423 to Gly (Homo sapiens); assay: pulldown; conditions: relative to hGR-SB
[17] = test system: hGR G481 481 to Gly (Homo sapiens); assay: pulldown; conditions: relative to hGR-SB
[18] = test system: hGR G438 438 to Gly (Homo sapiens); assay: pulldown; conditions: relative to hGR-SB
[19] = test system: hGR G424 424 to Gly (Homo sapiens); assay: pulldown; conditions: relative to hGR-SB
[20] = test system: hGR G442 K442G (Homo sapiens); assay: pulldown; conditions: relative to hGR-SB; binds but transcriptionally inactive
[21] = test system: hGR G474 474 to Gly (Homo sapiens); assay: pulldown; conditions: relative to hGR-SB
[22] = test system: hGR G447 447 to Gly (Homo sapiens); assay: pulldown; conditions: relative to hGR-SB
[23] = test system: hGR G453 453 to Gly (Homo sapiens); assay: pulldown; conditions: relative to hGR-SB
[24] = test system: hGR G445 445 to Gly (Homo sapiens); assay: pulldown; conditions: relative to hGR-SB
[25] = test system: hGR G480 480 to Gly (Homo sapiens); assay: pulldown; conditions: relative to hGR-SB
[26] = test system: hGR G467 467 to Gly (Homo sapiens); assay: pulldown; conditions: relative to hGR-SB; may be unstable in vitro
[27] = test system: hGR G470 470 to Gly (Homo sapiens); assay: pulldown; conditions: relative to hGR-SB
[28] = test system: hGR G421 421 to Gly (Homo sapiens); assay: pulldown; conditions: relative to hGR-SB
[29] = test system: hGR G477 477 to Gly (Homo sapiens); assay: pulldown; conditions: relative to hGR-SB
[30] = test system: hGR G457 457 to Gly (Homo sapiens); assay: pulldown; conditions: relative to hGR-SB
[31] = test system: hGR G446 446 to Gly (Homo sapiens); assay: pulldown; conditions: relative to hGR-SB; may be unstable in vitro
[32] = test system: hGR delta420-451 deletion between residues 420 and 451 (printed positions are the non-deleted junction residues) (Homo sapiens); assay: pulldown; conditions: relative to hGR-SB
[33] = test system: hGR G462 462 to Gly (Homo sapiens); assay: pulldown; conditions: relative to hGR-SB
[34] = test system: hGR G441 441 to Gly (Homo sapiens); assay: pulldown; conditions: relative to hGR-SB
[35] = test system: hGR G486 486 to Gly (Homo sapiens); assay: pulldown; conditions: relative to hGR-SB; may be unstable in vitro (10% activity in cells)
[36] = test system: hGR G471 471 to Gly (Homo sapiens); assay: pulldown; conditions: relative to hGR-SB
[37] = test system: hGR G426 D426G (Homo sapiens); assay: pulldown; conditions: relative to hGR-SB
[38] = test system: rTRalpha-Bm+ (rat thyroid hormone receptor alpha) BamHI linker at amino acid 21 (Rattus norvegicus), P63059-2; assay: cell_activity; conditions: TRE-CAT, T3; which TRE (rGH or palindromic) not stated
[39] = biological target: G-gal-G (hGR with DNA binding domain replaced by GAL4 1-74) (Homo sapiens / Saccharomyces cerevisiae) (UniProt P04150+P04386); assay: cell_activity
[40] = biological target: GAL4 (Saccharomyces cerevisiae) (UniProt P04386); assay: cell_activity; conditions: CAT reporter
GAL4 (Saccharomyces cerevisiae), sequence (P04386 whole entry, the tested form may be a part): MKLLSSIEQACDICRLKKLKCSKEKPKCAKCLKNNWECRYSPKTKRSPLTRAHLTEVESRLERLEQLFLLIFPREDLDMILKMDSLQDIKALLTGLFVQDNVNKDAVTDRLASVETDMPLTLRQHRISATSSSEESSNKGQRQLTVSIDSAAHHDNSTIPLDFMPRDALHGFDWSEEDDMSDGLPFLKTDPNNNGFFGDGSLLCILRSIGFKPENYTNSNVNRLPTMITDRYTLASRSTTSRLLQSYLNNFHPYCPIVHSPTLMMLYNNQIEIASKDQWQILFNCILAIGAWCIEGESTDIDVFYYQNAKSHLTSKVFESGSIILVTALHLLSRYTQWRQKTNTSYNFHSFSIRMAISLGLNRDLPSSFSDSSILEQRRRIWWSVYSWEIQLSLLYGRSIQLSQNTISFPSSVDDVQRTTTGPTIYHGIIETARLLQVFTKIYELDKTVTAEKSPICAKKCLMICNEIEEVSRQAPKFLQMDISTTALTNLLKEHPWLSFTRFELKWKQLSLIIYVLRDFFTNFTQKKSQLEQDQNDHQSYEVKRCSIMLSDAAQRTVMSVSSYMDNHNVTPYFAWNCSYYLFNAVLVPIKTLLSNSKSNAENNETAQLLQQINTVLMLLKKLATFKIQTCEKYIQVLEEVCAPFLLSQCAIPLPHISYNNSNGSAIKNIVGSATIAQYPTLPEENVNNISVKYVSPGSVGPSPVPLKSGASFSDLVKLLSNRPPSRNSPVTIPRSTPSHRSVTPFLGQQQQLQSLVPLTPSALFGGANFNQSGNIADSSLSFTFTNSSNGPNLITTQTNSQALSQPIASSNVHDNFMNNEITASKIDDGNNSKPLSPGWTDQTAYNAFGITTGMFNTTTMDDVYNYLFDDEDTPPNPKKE

G-gal-G (hGR with DNA binding domain replaced by GAL4 1-74) (Homo sapiens / Saccharomyces cerevisiae), sequence (P04150 other isoform, or with tags, fused parts or gaps, chain 1 of 2): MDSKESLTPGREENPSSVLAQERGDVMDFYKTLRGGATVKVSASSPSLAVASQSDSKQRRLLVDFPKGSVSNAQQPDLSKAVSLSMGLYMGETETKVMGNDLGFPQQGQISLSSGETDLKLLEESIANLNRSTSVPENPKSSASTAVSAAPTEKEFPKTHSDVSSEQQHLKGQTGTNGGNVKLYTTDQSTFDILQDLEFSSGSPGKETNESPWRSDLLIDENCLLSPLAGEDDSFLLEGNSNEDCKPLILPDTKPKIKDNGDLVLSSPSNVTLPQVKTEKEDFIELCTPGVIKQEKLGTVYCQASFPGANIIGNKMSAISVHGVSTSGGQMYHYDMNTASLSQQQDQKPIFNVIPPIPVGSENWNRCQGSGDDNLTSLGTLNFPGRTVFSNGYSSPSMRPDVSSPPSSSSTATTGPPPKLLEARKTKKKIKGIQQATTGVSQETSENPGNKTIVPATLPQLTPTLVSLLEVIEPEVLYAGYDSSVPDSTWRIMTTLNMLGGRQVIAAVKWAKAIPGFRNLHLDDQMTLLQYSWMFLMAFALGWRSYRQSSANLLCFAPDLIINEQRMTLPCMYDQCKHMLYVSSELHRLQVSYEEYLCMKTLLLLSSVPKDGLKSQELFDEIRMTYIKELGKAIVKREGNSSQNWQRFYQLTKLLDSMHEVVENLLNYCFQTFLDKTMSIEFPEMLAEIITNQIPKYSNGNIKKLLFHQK
G-gal-G (hGR with DNA binding domain replaced by GAL4 1-74) (Homo sapiens / Saccharomyces cerevisiae), sequence (P04386 1-74, chain 2 of 2): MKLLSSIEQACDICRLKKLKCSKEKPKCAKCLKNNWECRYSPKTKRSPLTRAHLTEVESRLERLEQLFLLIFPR
rTRalpha-Bm+ (rat thyroid hormone receptor alpha) BamHI linker at amino acid 21 (Rattus norvegicus), P63059-2, sequence (P63059 whole entry, looked up, the tested form may be a part): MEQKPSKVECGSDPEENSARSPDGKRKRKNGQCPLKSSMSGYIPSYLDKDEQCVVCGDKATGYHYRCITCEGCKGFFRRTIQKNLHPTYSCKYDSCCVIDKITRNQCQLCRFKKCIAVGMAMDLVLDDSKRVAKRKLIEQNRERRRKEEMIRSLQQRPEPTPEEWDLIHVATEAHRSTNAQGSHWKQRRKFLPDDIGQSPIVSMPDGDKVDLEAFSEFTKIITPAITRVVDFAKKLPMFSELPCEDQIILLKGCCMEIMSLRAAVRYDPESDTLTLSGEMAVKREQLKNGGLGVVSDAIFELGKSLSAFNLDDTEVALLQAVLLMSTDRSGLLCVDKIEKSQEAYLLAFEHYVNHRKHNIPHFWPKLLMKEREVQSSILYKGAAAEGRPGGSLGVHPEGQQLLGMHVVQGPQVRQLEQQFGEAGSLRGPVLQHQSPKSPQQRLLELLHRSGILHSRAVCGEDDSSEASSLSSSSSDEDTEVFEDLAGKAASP

Substance: GRE-containing DNA fragment
- binding signal [1]: 1%
- binding signal [2]: 1%
- binding signal [3]: 8%
- binding signal [4]: 1%
- binding signal [5]: 1%
- binding signal [6]: 100%
- binding signal [7]: < 1%
- binding signal [8]: 1%
- binding signal [9]: 40%
- binding signal [10]: 30%
- binding signal [11]: 6%
- binding signal [12]: 10%
- binding signal [13]: 50%
- binding signal [14]: < 1%
- binding signal [15]: 90%
- binding signal [16]: < 1%
- binding signal [17]: 3%
- binding signal [18]: < 1%
- binding signal [19]: 1%
- binding signal [20]: 60%
- binding signal [21]: 95%
- binding signal [22]: 2%
- binding signal [23]: 60%
- binding signal [24]: < 1%
- binding signal [25]: 50%
- binding signal [26]: 6%
- binding signal [27]: 4%
- binding signal [28]: < 1%
- binding signal [29]: 1%
- binding signal [30]: 2%
- binding signal [31]: 6%
- binding signal [32]: 1%
- binding signal [33]: 40%
- binding signal [34]: < 1%
- binding signal [35]: 1%
- binding signal [36]: 6%
- binding signal [37]: 75%

Substance: TCAGGTCATGACCTGA (double strand) [TRE of TRE-CAT reporter (palindromic TRE)]
- activity [38]: 100%

Substance: deltaMTV-CAT promoter (no GAL4 site, GREs deleted)
- activity ([39]; relative to deltaMTV-GAL-CAT, possible cryptic site): 5%

Substance: deltaMTV-GAL-CAT promoter with synthetic GAL4 site 17MX
- activity [40]: 20 fold
- activity ([39]; with hormone): 500 fold
